Experimental data taken from patent EP1207201A1, “NOVEL G PROTEIN-COUPLED RECEPTOR PROTEIN AND DNA THEREOF” (Takeda Chemical Industries, Ltd., priority 1999, dated 2001).
Where no end group is shown, it is not given here.

Target: T1, AQ27 (Homo sapiens, UniProt Q96P65)
T1 construct: expressed in transfected cells; host or cells: CHO cells
T1 sequence (Q96P65 1-431): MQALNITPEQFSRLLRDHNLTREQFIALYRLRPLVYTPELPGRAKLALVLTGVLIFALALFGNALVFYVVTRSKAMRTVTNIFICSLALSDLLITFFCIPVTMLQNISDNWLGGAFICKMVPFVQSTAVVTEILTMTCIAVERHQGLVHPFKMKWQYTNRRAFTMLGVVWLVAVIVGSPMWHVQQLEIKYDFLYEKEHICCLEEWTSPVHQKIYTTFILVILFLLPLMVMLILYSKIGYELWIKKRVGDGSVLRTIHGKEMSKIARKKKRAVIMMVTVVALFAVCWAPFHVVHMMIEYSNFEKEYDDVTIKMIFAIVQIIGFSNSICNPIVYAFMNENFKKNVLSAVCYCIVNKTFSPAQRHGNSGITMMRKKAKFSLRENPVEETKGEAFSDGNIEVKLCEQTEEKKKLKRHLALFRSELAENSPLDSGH
Assay: Cytosensor cell activation (increase of acidification rate) in AQ27-expressing CHO cells versus mock cells
Format: cell-based
Conditions: 10 µM, exposure 7 minutes and 2 seconds, AQ27-expressing CHO cells compared with mock cells
Experimental: The vertical axis represents a cycle of measurement. "•" denotes the reactivity of receptor-expressed CHO cells and "○" denotes the reactivity of mock cells.
The AQ27-expressing CHO cells and mock cells were inoculated in a capsule for Cytosensor at a concentration of 2.7 x 10^5 cells/capsule, respectively, incuvated overnight, and mounted onto Cytosensor(Molecular Device). After the acidification rare became stable, the cells were exposed to 10 µM Enkephalin-Arg-Phe amide (Bachem, H-2835) for 7 minutes and 2 seconds. The cell activation was measured using the increasing rate of the acidification rate as index.

Substance: Met-Enkephalin-Arg-Phe amide (YGGFMRF-NH2) [peptide amide purchased from Bachem, H-2835]
- cell activation measured using the increasing rate of the acidification rate as index: specifically activates the AQ27-expressing CHO cells
